The record followed here is patent publication US20250074980A1 (BRIGHAM AND WOMEN S HOSPITAL, published 2025).

As a reminder, the Kd is the free concentration of one partner at which half of the binding sites on the other are occupied at equilibrium, for simple one-to-one binding. A low value points to tighter binding. Broadly, the koff is the rate constant with which the complex falls apart. Low values mean slow dissociation, high ones fast dissociation. As a reminder, the kon is the second-order rate constant of association. Lower therefore signals slower complex formation.

Holding throughout (assay): SPR single-cycle, supernatant IgG captured
The target in test [1] is T1, His-tagged CEACAM1 (human, UniProt P13688 35-428).
T1 construct: 45 kDa SPR analyte; also called CEACAM1-HIS; CEACAM1 analyte
T1 sequence: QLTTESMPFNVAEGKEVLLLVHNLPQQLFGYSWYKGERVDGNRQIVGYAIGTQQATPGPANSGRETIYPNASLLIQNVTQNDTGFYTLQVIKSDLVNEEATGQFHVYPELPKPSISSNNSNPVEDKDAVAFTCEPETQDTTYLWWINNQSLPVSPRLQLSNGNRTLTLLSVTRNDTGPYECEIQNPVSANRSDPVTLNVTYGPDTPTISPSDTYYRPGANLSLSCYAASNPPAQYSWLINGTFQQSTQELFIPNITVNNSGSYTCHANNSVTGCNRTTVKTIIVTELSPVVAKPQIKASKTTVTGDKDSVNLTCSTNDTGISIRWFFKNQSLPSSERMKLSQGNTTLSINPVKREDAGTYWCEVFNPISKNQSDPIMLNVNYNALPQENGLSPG
The procedure:
(§1) In order to assess the binding of the humanized, affinity matured reformatted lead IgGs, single-cycle kinetics analysis was performed on crude supernatants using a Biacore T200 running Biacore T200 Control Software V2.0.1 and Biacore T200 Evaluation Software V3.0. Antibodies were diluted in HBS-P+ to a final concentration of 0.5 μg/ml. At the start of each cycle, antibodies were loaded onto Fc2, Fc3 and Fc4 of the Protein A chip. IgGs were captured at a flow rate of 10 μl/min to give an immobilisation level (RL) of ˜100 RU (a level calculated to obtain a Rₘₐₓ of ˜50-150 RU once the analyte is bound). The surface was then allowed to stabilize. Single-cycle kinetics data was obtained with CEACAM1 as the analyte at a flow rate of 80 μl/min to minimize any potential mass transfer effects. Multiple repeats with the parent (VH1/Vκ8 S29A) antibody were performed to check the stability of the surface and analyte over the kinetic cycles. The signal from the reference channel Fc1 (no antibody) was subtracted from that of Fc2, Fc3 and Fc4 to correct for differences in non-specific binding to the reference surface. A three point, two-fold dilution range from 70 nM to 280 nM CEACAM1 without regeneration between each concentration was used. The signal from each antibody blank run (no CEACAM1) was subtracted to correct for differences in surface stability. The association phase for the three injections of increasing concentrations of CEACAM1 was monitored for 80 seconds each time and a single dissociation phase was measured for 150 seconds following the last injection of CEACAM1. Regeneration of the Protein A surface was conducted using two injections of 10 mM glycine-HCL pH 1.5 followed by a stabilization period of 250 seconds.

For test [2], the target named is T1, His-tagged CEACAM1. The procedure, abridged: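 IgG came from supernatants of HEK EBNA cells transiently transfected by PEI in 6-well plates and harvested 5-7 days later. Supernatants were quantified by ELISA and filtered. Single-cycle surface plasmon resonance was run on a Biacore T200 at 25° C in HBS-P+ (pH 7.4), with IgG captured on Protein A and His-tagged CEACAM1 as analyte. Kon, koff and Kd were fitted, and relative KD was calculated against the parent antibody assayed in the same experiment.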
The source holds these as a separate data set.

The target of test [3] is T1, His-tagged CEACAM1. The procedure:
as §1
This is another data set of the same source.

Read-outs that look alike come from different tables or passages of the source.

B1: 8H3_9C2 (CDR1)/CP08E05 (antibody, IgG4, V domains shown)
VH: EVQLLESGGGLVQPGGSLRLSCAASEFTFSDHAMSWVRQAPGKGLEWVATISSGGTYTYYPDSVKGRFTISRDNSKNTLYLQMNSLKAEDTAMYYCARHDFDYFPYWFAHWGQGTLVTVSS
VL: EIVLTQSPATLSLSPGERATLSCRANSAVSYMYWYQQKPGQAPRPWIYLTSNRATGVPARFSGSGSGTDYTLTISSLEPEDFAVYYCQQWTTNPPTFGQGTKLEIK
notes: IgG4 (S241P), kappa
Take B1: in the test with His-tagged CEACAM1 [1], the Kd stood at 250 nM, the koff is 0.019 s⁻¹, the kon worked out at 73000 M⁻¹ s⁻¹ and the “relative KD to parent” value came to 2.2.

B2: VH1/CP08E05 (antibody, IgG4, V domains shown)
VH: EVQLLESGGGLVQPGGSLRLSCAASGFIFSSHGMSWVRQAPGKGLEWVATISSGGTYTYYPDSVKGRFTISRDNSKNTLYLQMNSLKAEDTAMYYCARHDFDYDAAWFAYWGQGTLVTVSS
VL: EIVLTQSPATLSLSPGERATLSCRANSAVSYMYWYQQKPGQAPRPWIYLTSNRATGVPARFSGSGSGTDYTLTISSLEPEDFAVYYCQQWTTNPPTFGQGTKLEIK
notes: IgG4 (S241P), kappa; also called Parent VH/CP08E05
As for B2, in the test with His-tagged CEACAM1 [2], binding was characterised by a dissociation constant (Kd) of 230 nM, the koff worked out at 0.034 s⁻¹, the kon was 150000 M⁻¹ s⁻¹ and the “relative KD to parent” value came out at 2.4. Also, in the test with His-tagged CEACAM1 [3], binding was characterised by a dissociation constant (Kd) of 140 nM, the koff worked out at 0.034 s⁻¹, the kon was found to be 240000 M⁻¹ s⁻¹ and the “relative KD to parent” value came out at 4.4.

B3: CP09E05/Vκ8 S29A (antibody, IgG4, V domains shown)
VH: EVQLLESGGGLVQPGGSLRLSCAASGFIFSSHGMSWVRQAPGKGLEWVATISSGGTYTYYPDSVKGRFTISRDNSKNTLYLQMNSLKAEDTAMYYCARHGFDYDAAWFAYWGQGTLVTVSS
VL: EIVLTQSPATLSLSPGERATLSCRANSAVSYMYWYQQKPGQAPRPWIYLTSNRATGVPARFSGSGSGTDYTLTISSLEPEDFAVYYCQQWSSNPPTFGQGTKLEIK
notes: IgG4 (S241P), kappa
Regarding B3, in the test with His-tagged CEACAM1 [2], the affinity, expressed as Kd, was 300 nM; the koff amounted to 0.035 s⁻¹; the kon stood at 120000 M⁻¹ s⁻¹; the “relative KD to parent” value amounted to 1.8. In the test with His-tagged CEACAM1 [3], binding was put at a Kd of 320 nM, the koff was 0.037 s⁻¹, the kon was 120000 M⁻¹ s⁻¹ and the “relative KD to parent” value was found to be 1.4.

B4: VH1/CP08G09 (antibody, IgG4, V domains shown)
VH: EVQLLESGGGLVQPGGSLRLSCAASGFIFSSHGMSWVRQAPGKGLEWVATISSGGTYTYYPDSVKGRFTISRDNSKNTLYLQMNSLKAEDTAMYYCARHDFDYDAAWFAYWGQGTLVTVSS
VL: EIVLTQSPATLSLSPGERATLSCRANSAVSYMYWYQQKPGQAPRPWIYLTSNRATGVPARFSGSGSGTDYTLTISSLEPEDFAVYYCQQWTAFPPTFGQGTKLEIK
notes: IgG4 (S241P), kappa; also called Parent VH/CP08G09
Regarding B4, in the test with His-tagged CEACAM1 [2], the Kd came out at 480 nM, the koff turned out to be 0.057 s⁻¹, the on-rate constant (kon) was found to be 120000 M⁻¹ s⁻¹ and the “relative KD to parent” value was determined as 1.2. Moreover, in the test with His-tagged CEACAM1 [3], the Kd stood at 110 nM, the dissociation rate constant (koff) stood at 0.049 s⁻¹, the kon was 470000 M⁻¹ s⁻¹ and the “relative KD to parent” value turned out to be 5.9.

B5: 8H3_9C2 (CDR1)/Vκ8 S29A (antibody, IgG4, V domains shown)
VH: EVQLLESGGGLVQPGGSLRLSCAASEFTFSDHAMSWVRQAPGKGLEWVATISSGGTYTYYPDSVKGRFTISRDNSKNTLYLQMNSLKAEDTAMYYCARHDFDYFPYWFAHWGQGTLVTVSS
VL: EIVLTQSPATLSLSPGERATLSCRANSAVSYMYWYQQKPGQAPRPWIYLTSNRATGVPARFSGSGSGTDYTLTISSLEPEDFAVYYCQQWSSNPPTFGQGTKLEIK
notes: IgG4 (S241P), kappa
With B5, in the test with His-tagged CEACAM1 [1], the affinity, expressed as Kd, was 210 nM; the koff was determined as 0.018 s⁻¹; the kon came to 88000 M⁻¹ s⁻¹; the “relative KD to parent” value is 2.7.

B6: CP09C02/Vκ8 S29A (antibody, IgG4, V domains shown)
VH: EVQLLESGGGLVQPGGSLRLSCAASEFTFSDHAMSWVRQAPGKGLEWVATISSGGTYTYYPDSVKGRFTISRDNSKNTLYLQMNSLKAEDTAMYYCARHGFDYDAAWFAYWGQGTLVTVSS
VL: EIVLTQSPATLSLSPGERATLSCRANSAVSYMYWYQQKPGQAPRPWIYLTSNRATGVPARFSGSGSGTDYTLTISSLEPEDFAVYYCQQWSSNPPTFGQGTKLEIK
notes: IgG4 (S241P), kappa
With B6, in the test with His-tagged CEACAM1 [2], the Kd came out at 170 nM, the koff came out at 0.019 s⁻¹, the kon was found to be 110000 M⁻¹ s⁻¹ and the “relative KD to parent” value stood at 3.3. Also, in the test with His-tagged CEACAM1 [3], the affinity, expressed as Kd, was 88 nM; the koff amounted to 0.017 s⁻¹; the kon came out at 200000 M⁻¹ s⁻¹; the “relative KD to parent” value worked out at 7.1.

B7: 8H3_9C2 (CDR1)/CP08F05 (antibody, IgG4, V domains shown)
VH: EVQLLESGGGLVQPGGSLRLSCAASEFTFSDHAMSWVRQAPGKGLEWVATISSGGTYTYYPDSVKGRFTISRDNSKNTLYLQMNSLKAEDTAMYYCARHDFDYFPYWFAHWGQGTLVTVSS
VL: EIVLTQSPATLSLSPGERATLSCRANSAVSYMYWYQQKPGQAPRPWIYLTSNRATGVPARFSGSGSGTDYTLTISSLEPEDFAVYYCQQWTSNPPTFGQGTKLEIK
notes: IgG4 (S241P), kappa
Take B7: in the test with His-tagged CEACAM1 [1], the Kd turned out to be 240 nM, the koff amounted to 0.017 s⁻¹, the kon came to 72000 M⁻¹ s⁻¹ and the “relative KD to parent” value came out at 2.3.

B8: VH1/CP08D02 (antibody, IgG4, V domains shown)
VH: EVQLLESGGGLVQPGGSLRLSCAASGFIFSSHGMSWVRQAPGKGLEWVATISSGGTYTYYPDSVKGRFTISRDNSKNTLYLQMNSLKAEDTAMYYCARHDFDYDAAWFAYWGQGTLVTVSS
VL: EIVLTQSPATLSLSPGERATLSCRANSAVSYMYWYQQKPGQAPRPWIYLTSNRATGVPARFSGSGSGTDYTLTISSLEPEDFAVYYCQQWTSFPPTFGQGTKLEIK
notes: IgG4 (S241P), kappa; also called Parent VH/CP08D02
Take B8: in the test with His-tagged CEACAM1 [2], the Kd came out at 450 nM, the koff was determined as 0.057 s⁻¹, the kon stood at 130000 M⁻¹ s⁻¹ and the “relative KD to parent” value came out at 1.2. In the test with His-tagged CEACAM1 [3], the Kd is 100 nM, the koff was 0.043 s⁻¹, the kon came to 430000 M⁻¹ s⁻¹ and the “relative KD to parent” value is 6.2.

B9: VH1/CP08F05 (antibody, IgG4, V domains shown)
VH: EVQLLESGGGLVQPGGSLRLSCAASGFIFSSHGMSWVRQAPGKGLEWVATISSGGTYTYYPDSVKGRFTISRDNSKNTLYLQMNSLKAEDTAMYYCARHDFDYDAAWFAYWGQGTLVTVSS
VL: EIVLTQSPATLSLSPGERATLSCRANSAVSYMYWYQQKPGQAPRPWIYLTSNRATGVPARFSGSGSGTDYTLTISSLEPEDFAVYYCQQWTSNPPTFGQGTKLEIK
notes: IgG4 (S241P), kappa; also called Parent VH/CP08F05
Take B9: in the test with His-tagged CEACAM1 [2], the Kd came out at 280 nM, the koff is 0.029 s⁻¹, the kon was determined as 100000 M⁻¹ s⁻¹ and the “relative KD to parent” value was found to be 2. Also, in the test with His-tagged CEACAM1 [3], the Kd was found to be 280 nM, the koff turned out to be 0.11 s⁻¹, the kon turned out to be 400000 M⁻¹ s⁻¹ and the “relative KD to parent” value was 2.2.

B10: VH1/CP08E01 (antibody, IgG4, V domains shown)
VH: EVQLLESGGGLVQPGGSLRLSCAASGFIFSSHGMSWVRQAPGKGLEWVATISSGGTYTYYPDSVKGRFTISRDNSKNTLYLQMNSLKAEDTAMYYCARHDFDYDAAWFAYWGQGTLVTVSS
VL: EIVLTQSPATLSLSPGERATLSCRANSAVSYMYWYQQKPGQAPRPWIYLTSNRATGVPARFSGSGSGTDYTLTISSLEPEDFAVYYCQQWTTFPPTFGQGTKLEIK
notes: IgG4 (S241P), kappa; also called Parent VH/CP08E01
As to B10, in the test with His-tagged CEACAM1 [2], the Kd stood at 450 nM, the koff was determined as 0.053 s⁻¹, the kon was 120000 M⁻¹ s⁻¹ and the “relative KD to parent” value was determined as 1.2. Further, in the test with His-tagged CEACAM1 [3], the affinity, expressed as Kd, was 170 nM; the koff was found to be 0.054 s⁻¹; the kon is 330000 M⁻¹ s⁻¹; the “relative KD to parent” value amounted to 3.7.

B11: 8H3_9C2/CP08E05 (antibody, IgG4, V domains shown)
VH: EVQLLESGGGLVQPGGSLRLSCAASEFTFSDHAMSWVRQAPGKGLEWVATISSGGTYTYYPDSVKGRFTISRDNSKNTLYLQMNSLKAEDTAMYYCARHGFDYFPYWFAHWGQGTLVTVSS
VL: EIVLTQSPATLSLSPGERATLSCRANSAVSYMYWYQQKPGQAPRPWIYLTSNRATGVPARFSGSGSGTDYTLTISSLEPEDFAVYYCQQWTTNPPTFGQGTKLEIK
notes: IgG4 (S241P), kappa
Consider B11, for which, in the test with His-tagged CEACAM1 [1], the affinity, expressed as Kd, was 110 nM; the koff was determined as 0.0071 s⁻¹; the kon stood at 67000 M⁻¹ s⁻¹; the “relative KD to parent” value came out at 5.3.
